Assays:
[1] = target: T1, Human CD40 (human, UniProt P25942 21-277); test: cell-based or functional assay
[2] = target: T2, mouse CD40 (mouse, UniProt P27512 20-289); test: Alexa 647 labeled Ab102 on the surface of B cells
T2 construct: whole, on cells
T2 sequence (looked up): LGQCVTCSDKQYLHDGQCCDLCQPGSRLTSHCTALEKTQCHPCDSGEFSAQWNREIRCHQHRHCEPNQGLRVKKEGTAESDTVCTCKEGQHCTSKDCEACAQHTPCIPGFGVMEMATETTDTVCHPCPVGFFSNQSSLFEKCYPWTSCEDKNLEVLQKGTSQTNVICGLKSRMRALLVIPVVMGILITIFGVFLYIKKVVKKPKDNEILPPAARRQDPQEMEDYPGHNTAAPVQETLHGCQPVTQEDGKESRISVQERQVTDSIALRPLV

[3] = target: T3, rat CD40 (rat, UniProt A6JXD6 20-289); test: Alexa 647 labeled Ab102 on the surface of B cells
T3 sequence: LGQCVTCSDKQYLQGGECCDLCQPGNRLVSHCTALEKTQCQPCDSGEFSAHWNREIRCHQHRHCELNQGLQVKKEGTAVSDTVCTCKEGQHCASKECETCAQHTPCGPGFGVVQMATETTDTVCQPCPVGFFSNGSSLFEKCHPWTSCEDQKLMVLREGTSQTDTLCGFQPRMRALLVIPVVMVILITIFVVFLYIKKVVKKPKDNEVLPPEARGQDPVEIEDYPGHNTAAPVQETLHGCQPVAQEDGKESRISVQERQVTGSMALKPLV

[4] = target: T1, Human CD40; test: Alexa 647 labeled Ab102 binding to CD40 on the surface of human B cells
Experimental: (§1) The cross-reactivity of Ab102 with CD40 from various species was tested. […] Binding of Ab102 to mouse, rat, and rabbit CD40 could not be detected at concentrations up to 30 μg/mL (200 nM).

[5] = target: T4, cyno CD40 (cynomolgus monkey, UniProt G7PG38 21-278); test: Alexa 647 labeled Ab102 binding to CD40 on the surface of cynomolgus monkey B cells
T4 construct: whole, on cells; also called cyCD40; cynomolgus monkey CD40
Experimental: as §1

T1 sequence (P25942 21-277 limits assumed): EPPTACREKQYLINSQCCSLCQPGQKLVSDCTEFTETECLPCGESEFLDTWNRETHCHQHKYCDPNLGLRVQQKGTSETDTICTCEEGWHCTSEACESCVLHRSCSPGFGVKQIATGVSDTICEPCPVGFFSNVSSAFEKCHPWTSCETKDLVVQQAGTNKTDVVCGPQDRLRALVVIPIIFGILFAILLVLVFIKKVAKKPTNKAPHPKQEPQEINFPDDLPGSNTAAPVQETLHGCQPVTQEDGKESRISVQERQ

Monocyte Activation Assay, Antagonist IC50 (nM), Experiment 1 [1]: 0.06 nM | Monocyte Activation Assay, Antagonist IC50 (nM), Experiment 2 [1]: 0.23 nM | Monocyte Activation Assay, Antagonist IC50 (nM), Experiment 3 [1]: 0.11 nM | binding result [2]: no binding (tested: 30 µg/mL (200 nM)) | binding result [3]: no binding (tested: 30 µg/mL (200 nM)) | EC50 [4]: 0.89 nM | EC50 [5]: 1.4 nM
B1: Ab102 (antibody, human IgG1, kappa, L234A L235A, V domains shown)
VH: EVQLVESGGGLVKPGGSLRLSCAASGFTFSDYGMNWVRQAPGKGLEWIAYISSGRGNIYYADTVKGRFTISRDNAKNSLYLQMNSLRAEDTAVYYCARSWGYFDVWGQGTTVTVSS
VL: DIVMTQSPDSLAVSLGERATINCKSSQSLLNRGNQKNYLTWFQQKPGQPPKLLIYWASTRESGVPDRFSGSGSGTDFTLTISSLQAEDVAVYYCQNDYTYPLTFGQGTKLEIKR
notes: Humanized IgG1/kappa with L234A, L235A, T250Q, M428L (LALA-QL); also called VL huAbv1/VH huAb1v1CDR2v7/hCg1/k-LALA-QL; mAb CD40 Ab102 [hu IgG1/k]; LALA QL

— patent publication US20160347850A1 (AbbVie / Abbott, published 2016)
